1 molecule from patent US20190330331A1 (BLOOM DIAGNOSTICS, published 2019) can be followed below.

In this test the target is T1, recombinant yeast-expressed His-tagged full-length AMH comprising amino acids 26-560 of human AMH (human, UniProt P03971 26-560).
T1 construct: Bought protein (Antikörper Online, ABIN2524475); also called recombinant AMH; human Anti-Müllerian hormone
T1 sequence: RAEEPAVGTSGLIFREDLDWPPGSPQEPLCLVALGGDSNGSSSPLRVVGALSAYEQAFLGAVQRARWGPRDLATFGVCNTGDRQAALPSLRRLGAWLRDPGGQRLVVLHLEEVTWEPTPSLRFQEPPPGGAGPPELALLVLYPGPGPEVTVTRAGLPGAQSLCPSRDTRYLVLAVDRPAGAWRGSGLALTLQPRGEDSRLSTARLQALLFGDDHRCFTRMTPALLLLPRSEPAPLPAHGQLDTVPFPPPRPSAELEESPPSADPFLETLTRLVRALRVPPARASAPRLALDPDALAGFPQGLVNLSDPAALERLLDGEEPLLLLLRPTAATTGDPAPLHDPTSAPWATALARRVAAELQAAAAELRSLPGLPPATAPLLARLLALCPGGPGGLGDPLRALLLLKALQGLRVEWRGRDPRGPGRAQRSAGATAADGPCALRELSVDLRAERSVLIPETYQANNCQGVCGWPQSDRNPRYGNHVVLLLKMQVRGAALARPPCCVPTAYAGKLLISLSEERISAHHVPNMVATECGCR
In words: SPR (Biacore T200), AMH amine-coupled to the chip, antibody as analyte, bivalent-analyte model. How it is done:
Surface-plasmon-resonance (SPR) measurements were performed using a Biacore T200 facility, control software version 2.0, and Series S sensor-chips carboxymethyl dextran chip type 5 (CMS, GE Healthcare Bio-Sciences AB, Uppsala, Sweden). The system was operating at 25° C. in running buffer HBSP (10 mmol/L 4-(2-hydroxyethyl)piperazine-1-ethanesulfonic acid (Hepes), 150 mmol/L NaCl., 0.05% Tween 20, pH 7.4). AMH was transferred to 10 mmol/L sodium acetate buffer pH 4.0 by passing it through a NAPS column (GE Healthcare) before immobilization by amine coupling (Biacore Sensor Surface Handbook). The carboxyl groups on the chip were activated with an mixture containing 200 mM 1-ethyl-3-(3-dimethylaminopropyl)-carbodiimide hydrochloride (EDC, Sigma-Aldrich) and 50 mM N hydroxysuccinimide (NHS, Fluka) for 180 s. AMH was then injected for 150 s at a concentration of 2.5 μg/mL in, at a flow of 10 μL/min and […]. Approximately 100 resonance units (RU) of AMH were covalently bound to the flow cell. Unreacted NHS esters were blocked with 1 mol/L ethanolamine pH 8.5 for 7 min. […] Association and dissociation rates and the binding constants of the antibodies were determined using the bivalent-analyte-binding model of the Biacore evaluation software (version 2.0). […]

B1: G170-FC5 (antibody, V domains shown)
VH: EVKLVESGGGLVKPGGSLKLSCAASGFIFSTYTMSWVRQTPGKRLEWVATISSGGSYTYYPDSVKGRFTISRDNAKNTLYLQMSSLRSEDTAMYYCTRHGSDYRYDGFDYWGQGTTLTVSS
VL: DILMTQSPASLSVSVGETVTITCRASENIYSNLAWYQQKQGKSPQLLVYAATNLADGVPSRFSGSGSGTQYSLKINSLQSEDFGSYYCQHFWGTPFTFGSGTKLEIK
notes: kappa primers were used for the VL; also called anti-AMH G170-FC5; anti-AMH antibody
Turning to B1, the Kd was about 1 nM.
